The results in this text go back to the RNAGym collection of RNA variant scans (doi:10.1101/gr.219683.116).

B1: mRNA-splicing (parent)
chain: AGUUGCUGCUGGGAGCUCCAGCACAGUGAAAUGGACAGAAGGGCAGAGCAA

In the data set the parent is B1. In words: exon inclusion enrichment index; higher = more inclusion; WT1 exon 5 minigene, HEK293.
With G48A, the “exon inclusion enrichment index” value came out at 0.46. In the case of G48U it was 0.288; in that of G48C, 0.292. To G41A G42U belongs 0.107; to G41A G42C, 0.419. For the variant G41A G42A, the “exon inclusion enrichment index” value turned out to be 0.141. In the case of G42C it was 0.853; in that of G42A, 0.734. To G42U belongs 0.329. In the case of G46A A47C it was 0.547; in that of G46A A47U, 0.185; in that of G46A A47G, 0.0433. Turning to A45C G46A, the “exon inclusion enrichment index” value was 0.0421. In the case of A45C G46C it was 0.068; in that of A45C G46U, 0.0235; in that of G41U G42A, 0.0358. To G41U G42C belongs 0.49. As to G41U G42U, the “exon inclusion enrichment index” value came out at 0.192. In the case of G43A it was 0.774.

With G43U, the “exon inclusion enrichment index” value was determined as 0.11. Regarding G43C, the “exon inclusion enrichment index” value was 0.209. With A45U G46C, the “exon inclusion enrichment index” value is 0.0947. In the case of A45U G46A it was 0.0722; in that of A45U G46U, 0.0239. To A47U G48A belongs 0.123. To A47U G48U belongs 0.125. On to A47U G48C, for which the “exon inclusion enrichment index” value is 0.106. Turning to G42A G43U, the “exon inclusion enrichment index” value stood at 1.63.

Turning to G42A G43A, the “exon inclusion enrichment index” value was 1.43. In the case of G42A G43C it was 2.4. To A39C A40G belongs 0.223. With A39C A40U, the “exon inclusion enrichment index” value was found to be 0.0469.

Take A39C A40C: the “exon inclusion enrichment index” value is 0.407. To A40C G41U belongs 0.0496; to A40C G41A, 0.0344; to A40C G41C, 0.92. Consider C44A A45G, for which the “exon inclusion enrichment index” value stood at 0.233.

As to C44A A45C, the “exon inclusion enrichment index” value turned out to be 0.767.

For C44A A45U, the “exon inclusion enrichment index” value was determined as 0.469. To G38U A39C belongs 0.125; to G38U A39U, 0.000945. To G38U A39G belongs 0.0472; to G38A A39U, 0.00515.

As to G38A A39C, the “exon inclusion enrichment index” value came out at 0.13. To G38A A39G belongs 0.186; to A40U G41U, 0.0512; to A40U G41C, 0.701. In the case of A40U G41A it was 0.00196; in that of G46U A47C, 0.692; in that of G46U A47U, 0.237. On to G46U A47G, for which the “exon inclusion enrichment index” value was 0.116. For G43C C44G, the “exon inclusion enrichment index” value amounted to 1.62. To G43C C44A belongs 0.932; to G43C C44U, 0.086; to G46C A47U, 0.224. To G46C A47C belongs 0.227; to G46C A47G, 0.339. To A39U A40C belongs 0.276; to A39U A40G, 0.0141; to A39U A40U, 0.0388. On to G38C A39C, for which the “exon inclusion enrichment index” value stood at 0.158. Regarding G38C A39G, the “exon inclusion enrichment index” value was 0.21. In the case of G38C A39U, the “exon inclusion enrichment index” value turned out to be 0.00812.

For the variant G41C G42A, the “exon inclusion enrichment index” value was found to be 0.238. To G41C G42U belongs 0.907; to G41C G42C, 0.703; to G42C G43U, 0.634. To G42C G43C belongs 0.757; to G42C G43A, 0.623; to G41U, 0.16. Take G41C: the “exon inclusion enrichment index” value was 0.866. In the case of G41A it was 0.0829. Regarding G46C, the “exon inclusion enrichment index” value is 0.155.

As for G46A, the “exon inclusion enrichment index” value was 0.245. In the case of G46U it was 0.0964; in that of A40G, 0.0976; in that of A40U, 0.156. In the case of A40C it was 0.557.

Regarding A45U, the “exon inclusion enrichment index” value was 0.318.

On to A45C, for which the “exon inclusion enrichment index” value worked out at 0.223.

Regarding A45G, the “exon inclusion enrichment index” value worked out at 0.486.

As for A40G G41C, the “exon inclusion enrichment index” value stood at 0.927. In the case of A40G G41U it was 0.153; in that of A40G G41A, 0.0243. To A47G G48C belongs 0.0501; to A47G G48A, 0.0368. Consider A47G G48U, for which the “exon inclusion enrichment index” value was 0.00564. In the case of G43U C44U it was 0.0355; in that of G43U C44G, 0.0978. To G43U C44A belongs 0.00923.

For C44U, the “exon inclusion enrichment index” value is 0.0165.

C44A: the “exon inclusion enrichment index” value turned out to be 0.507. In the case of C44G it was 0.391; in that of A37U G38C, 0.0886. To A37U G38U belongs 0.0123.

With G43A C44U, the “exon inclusion enrichment index” value was found to be 0.129. In the case of G43A C44G it was 0.723; in that of G43A C44A, 0.778; in that of A39G A40C, 0.199. For the variant A39G A40G, the “exon inclusion enrichment index” value came out at 0.0122. In the case of A39G A40U it was 0.0108; in that of A47C G48C, 0.171; in that of A47C G48A, 0.0773. Turning to A47C G48U, the “exon inclusion enrichment index” value worked out at 0.173. For G38A, the “exon inclusion enrichment index” value is 0.0459. To G38C belongs 0.09. In the case of G38U it was 0.029; in that of A47C, 0.293.

Take A47G: the “exon inclusion enrichment index” value was determined as 0.0334. On to A47U, for which the “exon inclusion enrichment index” value was determined as 0.105. In the case of A39G it was 0.074. To A39U belongs 0.000772; to A39C, 0.0251; to C44U A45G, 0.0801.

For the variant C44U A45U, the “exon inclusion enrichment index” value was found to be 0.0412. As to C44U A45C, the “exon inclusion enrichment index” value worked out at 0.266.

In the case of C44G A45U, the “exon inclusion enrichment index” value was 0.0615. As for C44G A45C, the “exon inclusion enrichment index” value came out at 0.399. In the case of C44G A45G, the “exon inclusion enrichment index” value is 0.0345.

Regarding A45G G46U, the “exon inclusion enrichment index” value turned out to be 0.121. In the case of A45G G46A it was 0.84. A45G G46C: the “exon inclusion enrichment index” value came out at 0.331. Take G42U G43A: the “exon inclusion enrichment index” value was 0.492. With G42U G43C, the “exon inclusion enrichment index” value was determined as 0.112. To G42U G43U belongs 0.54.
